Assay results taken from patent US20260144239A1, “Immune Cell-Engrafted Non-Human Animals and Non-Human Animal Models” (LAPIX Therapeutics, Inc., priority 2022, published 2026).

Tests used:
humans = conditions: in vivo; cited from earlier work
C57B/6 control mice = assay: Immunogenicity in C57B/6 control mice, antibody titers by ELISA; assay type: in vivo, mouse
Experimental: (§1) Three healthy human donors were used to generate three engrafted mice designated HD1, HD2 and HD3. On Day 29 and Day 36, HD1, HD2 and HD3 were administered FVIII. The same amounts of antigen were administered to three C57B/6 control mice on the same date. Two weeks later (on Day 43), blood from each mouse was collected. Titers of mouse anti-FVIII antibodies, human anti-FVIII antibodies, mouse anti-GAA antibodies and human anti-GAA antibodies were measured using ELISA (FIGS. 8A-8B).
as §1, with “GAA.” for “FVIII.”, “anti-GAA” for “anti-FVIII”, “anti-FVIII” for “anti-GAA”, “8C-8D).” for “8A-8B).”
(§2) Healthy human donors were used to generate eight engrafted mice. […] The same amount of antigen was administered to three C57B/6 control mice on the same date. Two weeks later (on Day 43), blood from each mouse was collected.
(§3) Healthy human donors were used to generate 11 engrafted mice. […] The same amount of antigen was administered to three C57B/6 control mice on the same date. Two weeks later (on Day 43), blood from each mouse was collected.

engrafted mice [1] = assay: Immunogenicity in engrafted mice (NRGS mice with human immune system), antibody titers by ELISA; assay type: in vivo, mouse
Experimental: as §1
as §1, with “GAA.” for “FVIII.”, “anti-GAA” for “anti-FVIII”, “anti-FVIII” for “anti-GAA”, “8C-8D).” for “8A-8B).”
as §2, §3

engrafted mice [2] = assay: Human CD20 on B cells of engrafted mice that developed antibodies (flow cytometry); assay type: in vivo, mouse; conditions: CD20+/CD19+ cells (FIGS. 9A-9C)
Excerpt: Presence of human CD20 was detected on B cells of mice that developed antibodies to different biologics. CD20 is expressed on activated, antibody-producing B cells.

Substance: GAA: biologic antigen administered to engrafted and C57B/6 mice; abbreviation not spelled out in the text
- clinically reported immunogenicity rate in humans (humans): 89-100%
- mouse antibody titer to the antigen not administered (anti-FVIII after GAA, anti-GAA after FVIII) (C57B/6 control mice; C57B/6 control mice): none
- human antibody titer to the antigen not administered (anti-FVIII after GAA, anti-GAA after FVIII) (C57B/6 control mice; C57B/6 control mice, specificity control of titer assay): None
- percent of C57B/6 mice that developed mouse antibodies to the administered antigen (C57B/6 control mice; six (FVIII), 5 (GAA), three (IFN-β), three (AAV9) C57B/6 mice): 100%
- percent of C57B/6 mice that developed mouse antibodies to the administered antigen (C57B/6 control mice; three C57B/6 mice, first experiment (FIG. 8B, 8D)): 100%
- percent of engrafted mice that developed human antibodies to the administered antigen (engrafted mice [1]; 12 (FVIII), 14 (GAA), eight (IFN-β), 11 (AAV9) engrafted mice, antigen Day 29 and Day 36, blood Day 43, ELISA): 100%
- engrafted mice that developed mouse antibodies to the administered antigen (engrafted mice [1]; antigen Day 29 and Day 36, blood Day 43, ELISA): none
- mouse antibody titer to the antigen not administered (anti-FVIII after GAA, anti-GAA after FVIII) (engrafted mice [1]; engrafted mice): none
- human antibody titer to the antigen not administered (anti-FVIII after GAA, anti-GAA after FVIII) (engrafted mice [1]; engrafted mice, specificity control of titer assay): None
- engrafted mice that developed human antibodies to the administered antigen (number of mice) (engrafted mice [1]; three engrafted mice (HD1, HD2, HD3), antigen on Day 29 and Day 36, blood on Day 43, ELISA): all three
- observed immunogenicity rate in the engrafted mice (engrafted mice [1]; three engrafted mice, human antibodies to administered antigen, antigen Day 29 and Day 36, blood Day 43): about 100%
- CD20-expressing B cells after antigen exposure (engrafted mice [2]): had CD20-expressing B cells
